Article PMC9672452

Assay: cell-surface N1, PE anti-Notch1 flow cytometry, CHO
Conditions: control: wild type

## NOTCH1 (N1): N386T
Glycan gained
  expression_or_secretion: no change

## NOTCH1 (N1): T311P
Glycan lost
  expression_or_secretion: decreases

## NOTCH1 (N1): T349P
Glycan lost
  expression_or_secretion: decreases
